Assay results as given in paper PMC3259534.

Experiments:
[1] = target: MRG15 MRG polypeptide (residues 155–323), K201R background (human) (UniProt Q9UBU8); test: ITC
[2] = target: MRG15 MRG polypeptide (residues 155–323), K201R background (human) (UniProt Q9UBU8); test: NMR titration
MRG15 MRG L287A (human) = MRG15 MRG L287A (human) (UniProt Q9UBU8); test: ITC
MRG15 MRG M228A (human) = MRG15 MRG M228A (human) (UniProt Q9UBU8); test: ITC
MRG15 MRG M273A (human) = MRG15 MRG M273A (human) (UniProt Q9UBU8); test: ITC
MRG15 MRG R201K (human) = MRG15 MRG R201K (human) (UniProt Q9UBU8); test: ITC
MRG15 MRG V227A (human) = MRG15 MRG V227A (human) (UniProt Q9UBU8); test: ITC
MRG15 MRG V268A (human) = MRG15 MRG V268A (human) (UniProt Q9UBU8); test: ITC
MRG15 MRG W172A (human) = MRG15 MRG W172A (human) (UniProt Q9UBU8); test: ITC

Binder	Kd [1] [nM]	other results
Pf1 (aa 114–258) (domain or fragment) ELGHVNGLVDKSGKRTTSPSSDTDLLDRSASKTELKAIAHARILERRASRPGTPTSSASTETPTSEQNDVDEDIIDVDEEPVAAEPDYVQPQLRRPFELLIAAAMERNPTQFQLPNELTCTTALPGSSKRRRKEETTGKNVKKTQ	16	
ERNPTQFQLPNELT [Pf1 peptide corresponding to the tail segment (residues 219–232)]		Kd [2]: 119000 nM
DYVQPQLRRPFELLIAAAMERNPTQFQLPNELTCTTALPGSS (domain or fragment) [Pf1 MBD (MRG-binding domain, residues 200–241)]	12	Kd (MRG15 MRG L287A (human)): 407 nM; Kd (MRG15 MRG M228A (human)): 75 nM; Kd (MRG15 MRG M273A (human)): 96 nM; Kd (MRG15 MRG R201K (human)): 23 nM; Kd (MRG15 MRG V227A (human)): 194 nM; Kd (MRG15 MRG V268A (human)): 184 nM; Kd (MRG15 MRG W172A (human)): 67 nM
DYVQPQLRRPAELLIAAAMERNPTQFQLPNELTCTTALPGSS (domain or fragment) [Pf1 MBD F210A]	2600	
DYVQPQLRRPFELAIAAAMERNPTQFQLPNELTCTTALPGSS (domain or fragment) [Pf1 MBD L213A]	280	
DYVQPQLRRPFELLIAAAMERNPTQFQAPNELTCTTALPGSS (domain or fragment) [Pf1 MBD L227A]	370	
DYVQPQLRRPFEALIAAAMERNPTQFQLPNELTCTTALPGSS (domain or fragment) [Pf1 MBD L212A]	35	
DYVQPQLRRPFELLIAAAMERNPTQAQLPNELTCTTALPGSS (domain or fragment) [Pf1 MBD F225A]	19000	
DYVQPQLRRPFELLIAAAMERNPTQFQLANELTCTTALPGSS (domain or fragment) [Pf1 MBD P228A]	85	
DYVQPQLRRPFELLIAAAMEREPTQFQLPNELTCTTALPGSS (domain or fragment) [Pf1 MBD N221E]	15	
